Test results as given in patent publication CN115947850A (BEIJING DONGFANG BIOTECH CO LTD, dated 2023).

Tests used:
[1] = target: LILRA5 (UniProt A6NI73 42-268, limits assumed); test: ELISA, coated LILR protein 100 ng/well
[2] = target: LILRA3 (UniProt Q8N6C8 24-439); test: ELISA, coated LILR protein 100 ng/well
[3] = target: LILRA4 (UniProt P59901 24-446, limits assumed); test: ELISA, coated LILR protein 100 ng/well
[4] = target: LILRB3 (UniProt O75022 24-443, limits assumed); test: ELISA, coated LILR protein 100 ng/well
Sequence of LILRB3 (O75022 24-443 limits assumed): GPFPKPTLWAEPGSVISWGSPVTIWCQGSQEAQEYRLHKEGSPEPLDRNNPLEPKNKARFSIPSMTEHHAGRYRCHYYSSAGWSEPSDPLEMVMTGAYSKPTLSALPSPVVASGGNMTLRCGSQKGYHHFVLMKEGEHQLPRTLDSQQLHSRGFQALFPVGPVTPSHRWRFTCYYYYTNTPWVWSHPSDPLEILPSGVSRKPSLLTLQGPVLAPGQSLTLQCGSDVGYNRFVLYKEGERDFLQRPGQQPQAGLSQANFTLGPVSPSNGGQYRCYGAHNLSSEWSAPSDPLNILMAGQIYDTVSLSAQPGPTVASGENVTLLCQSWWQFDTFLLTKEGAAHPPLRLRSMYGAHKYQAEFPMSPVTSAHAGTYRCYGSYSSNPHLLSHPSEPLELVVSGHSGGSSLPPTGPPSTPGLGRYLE

[5] = target: LILRA6 (UniProt Q6PI73 24-447, limits assumed); test: ELISA, coated LILR protein 100 ng/well
Sequence of LILRA6 (Q6PI73 24-447 limits assumed): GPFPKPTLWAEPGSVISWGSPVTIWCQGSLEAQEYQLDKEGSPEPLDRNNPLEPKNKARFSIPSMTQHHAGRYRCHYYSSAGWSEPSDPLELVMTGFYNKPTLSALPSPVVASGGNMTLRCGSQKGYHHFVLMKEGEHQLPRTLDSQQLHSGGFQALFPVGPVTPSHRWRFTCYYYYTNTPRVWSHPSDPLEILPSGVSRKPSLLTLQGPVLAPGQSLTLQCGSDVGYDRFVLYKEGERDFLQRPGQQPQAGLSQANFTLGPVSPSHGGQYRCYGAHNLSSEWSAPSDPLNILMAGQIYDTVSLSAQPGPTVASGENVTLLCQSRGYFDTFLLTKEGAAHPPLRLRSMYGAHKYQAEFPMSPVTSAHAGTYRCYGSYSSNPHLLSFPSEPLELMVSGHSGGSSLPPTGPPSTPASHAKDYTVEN

[6] = target: LILRB5 (UniProt O75023 24-458, limits assumed); test: ELISA, coated LILR protein 100 ng/well
Sequence of LILRB5 (O75023 24-458 limits assumed): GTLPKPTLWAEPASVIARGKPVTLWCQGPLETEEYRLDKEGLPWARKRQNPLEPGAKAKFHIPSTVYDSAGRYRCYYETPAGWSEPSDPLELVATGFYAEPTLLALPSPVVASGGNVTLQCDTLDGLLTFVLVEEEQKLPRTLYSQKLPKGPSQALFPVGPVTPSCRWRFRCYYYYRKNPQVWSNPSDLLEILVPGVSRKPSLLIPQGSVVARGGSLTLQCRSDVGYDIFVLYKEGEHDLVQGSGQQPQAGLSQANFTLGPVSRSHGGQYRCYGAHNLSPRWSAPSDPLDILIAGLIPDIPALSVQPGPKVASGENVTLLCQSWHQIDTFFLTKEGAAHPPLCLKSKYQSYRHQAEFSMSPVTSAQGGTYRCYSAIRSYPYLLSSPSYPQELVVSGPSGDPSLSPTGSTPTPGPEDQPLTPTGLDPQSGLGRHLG

[7] = target: LILRA1 (UniProt O75019 17-461, limits assumed); test: ELISA, coated LILR protein 100 ng/well
Sequence of LILRA1 (O75019 17-461 limits assumed): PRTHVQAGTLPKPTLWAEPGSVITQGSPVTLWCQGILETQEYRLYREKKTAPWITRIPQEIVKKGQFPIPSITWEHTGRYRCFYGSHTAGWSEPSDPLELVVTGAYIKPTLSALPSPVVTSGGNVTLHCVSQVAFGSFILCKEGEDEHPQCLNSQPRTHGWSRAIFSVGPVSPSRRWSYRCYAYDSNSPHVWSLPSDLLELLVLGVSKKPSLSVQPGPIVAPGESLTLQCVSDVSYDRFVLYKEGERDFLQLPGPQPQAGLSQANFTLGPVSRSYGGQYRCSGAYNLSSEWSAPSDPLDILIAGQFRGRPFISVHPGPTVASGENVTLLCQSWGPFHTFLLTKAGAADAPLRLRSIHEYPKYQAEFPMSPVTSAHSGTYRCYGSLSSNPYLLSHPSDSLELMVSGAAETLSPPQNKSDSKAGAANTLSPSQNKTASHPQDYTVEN

[8] = target: LILRB1 (UniProt Q8NHL6 24-461, limits assumed); test: ELISA, coated LILR protein 100 ng/well
Sequence of LILRB1 (Q8NHL6 24-461 limits assumed): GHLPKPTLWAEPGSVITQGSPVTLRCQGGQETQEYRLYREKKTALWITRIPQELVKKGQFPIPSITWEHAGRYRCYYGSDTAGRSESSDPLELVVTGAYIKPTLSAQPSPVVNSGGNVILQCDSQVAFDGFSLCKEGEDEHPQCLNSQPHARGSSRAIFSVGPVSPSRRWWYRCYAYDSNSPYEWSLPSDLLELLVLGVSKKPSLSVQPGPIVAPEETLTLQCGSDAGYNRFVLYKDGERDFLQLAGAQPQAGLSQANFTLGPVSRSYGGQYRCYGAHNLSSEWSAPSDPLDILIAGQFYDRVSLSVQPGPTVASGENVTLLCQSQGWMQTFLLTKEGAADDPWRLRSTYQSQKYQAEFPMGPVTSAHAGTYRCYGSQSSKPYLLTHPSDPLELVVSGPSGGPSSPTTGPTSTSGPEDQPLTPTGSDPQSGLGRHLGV

[9] = target: LILRA2 (UniProt Q8N149 24-449, limits assumed); test: ELISA, coated LILR protein 100 ng/well
Sequence of LILRA2 (Q8N149 24-449 limits assumed): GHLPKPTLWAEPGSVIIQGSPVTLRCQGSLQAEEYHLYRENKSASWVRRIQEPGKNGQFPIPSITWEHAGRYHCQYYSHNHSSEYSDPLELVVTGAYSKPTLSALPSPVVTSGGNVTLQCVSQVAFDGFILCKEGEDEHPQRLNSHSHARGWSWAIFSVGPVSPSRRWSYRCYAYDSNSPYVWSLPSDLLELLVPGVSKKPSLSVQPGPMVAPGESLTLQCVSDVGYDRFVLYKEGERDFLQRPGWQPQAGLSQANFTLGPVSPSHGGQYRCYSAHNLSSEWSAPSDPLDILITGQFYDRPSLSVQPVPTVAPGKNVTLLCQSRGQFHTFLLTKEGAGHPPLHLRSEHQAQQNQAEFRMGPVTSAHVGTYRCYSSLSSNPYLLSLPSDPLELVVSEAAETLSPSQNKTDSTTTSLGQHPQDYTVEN

[10] = target: LILRB2 (UniProt Q8N423 22-460, limits assumed); test: ELISA, coated LILR protein 100 ng/well
Sequence of LILRB2 (Q8N423 22-460 limits assumed): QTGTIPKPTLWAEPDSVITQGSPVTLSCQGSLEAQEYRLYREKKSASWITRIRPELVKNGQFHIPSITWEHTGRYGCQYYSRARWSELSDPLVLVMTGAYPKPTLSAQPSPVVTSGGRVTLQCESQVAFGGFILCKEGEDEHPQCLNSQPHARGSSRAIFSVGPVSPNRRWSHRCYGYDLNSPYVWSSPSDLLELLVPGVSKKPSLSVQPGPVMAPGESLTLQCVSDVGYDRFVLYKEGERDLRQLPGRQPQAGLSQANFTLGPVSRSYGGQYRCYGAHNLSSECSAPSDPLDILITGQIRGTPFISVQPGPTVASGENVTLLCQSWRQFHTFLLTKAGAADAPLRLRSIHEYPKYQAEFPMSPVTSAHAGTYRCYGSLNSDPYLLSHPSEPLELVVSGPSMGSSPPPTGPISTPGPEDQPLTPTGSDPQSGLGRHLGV

[11] = target: T1, LILRB4 on the surface of human monocytic leukemia cells (THP-1) (human, UniProt Q8NHJ6 22-448); test: flow cytometry competition on THP-1 cells; competitor FITC-labelled ApoE at 0.4 μg/mL
T1 construct: whole, on cells; also called THP-1细胞表面的LILRB4

[12] = target: T2, human LILRB4 extracellular domain (LILRB4抗原, LILRB4蛋白胞外段) (human, UniProt Q8NHJ6 22-259); test: ELISA, coated LILRB4 100 ng/well, goat anti-mouse IgG-HRP detection
T2 construct: extracellular domain; also called 人LILRB4

[13] = target: T1, LILRB4 on the surface of human …; test: cell-based or functional assay
[14] = target: T1, LILRB4 on the surface of human …; test: flow cytometry on THP-1 cells, FITC goat anti-mouse IgG detection

Sequence of LILRA3 (Q8N6C8 24-439 limits assumed): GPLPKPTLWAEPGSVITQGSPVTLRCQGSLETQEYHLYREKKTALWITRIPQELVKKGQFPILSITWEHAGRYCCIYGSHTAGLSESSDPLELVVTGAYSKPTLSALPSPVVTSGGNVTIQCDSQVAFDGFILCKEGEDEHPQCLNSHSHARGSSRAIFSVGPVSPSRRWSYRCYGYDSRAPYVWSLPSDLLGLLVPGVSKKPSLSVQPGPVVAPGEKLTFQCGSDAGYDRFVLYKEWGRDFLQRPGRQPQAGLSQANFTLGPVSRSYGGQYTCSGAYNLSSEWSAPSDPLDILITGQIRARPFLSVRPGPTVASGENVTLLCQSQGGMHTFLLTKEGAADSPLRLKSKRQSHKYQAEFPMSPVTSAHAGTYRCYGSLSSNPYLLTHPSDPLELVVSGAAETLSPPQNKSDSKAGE
Sequence of LILRA5 (A6NI73 42-268 limits assumed): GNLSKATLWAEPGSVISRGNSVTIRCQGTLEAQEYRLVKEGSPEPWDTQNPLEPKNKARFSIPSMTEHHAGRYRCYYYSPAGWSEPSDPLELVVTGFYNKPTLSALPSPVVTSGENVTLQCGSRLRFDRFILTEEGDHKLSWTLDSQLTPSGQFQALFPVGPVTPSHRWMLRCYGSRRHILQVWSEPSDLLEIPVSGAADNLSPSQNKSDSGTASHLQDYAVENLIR
Sequence of LILRA4 (P59901 24-446 limits assumed): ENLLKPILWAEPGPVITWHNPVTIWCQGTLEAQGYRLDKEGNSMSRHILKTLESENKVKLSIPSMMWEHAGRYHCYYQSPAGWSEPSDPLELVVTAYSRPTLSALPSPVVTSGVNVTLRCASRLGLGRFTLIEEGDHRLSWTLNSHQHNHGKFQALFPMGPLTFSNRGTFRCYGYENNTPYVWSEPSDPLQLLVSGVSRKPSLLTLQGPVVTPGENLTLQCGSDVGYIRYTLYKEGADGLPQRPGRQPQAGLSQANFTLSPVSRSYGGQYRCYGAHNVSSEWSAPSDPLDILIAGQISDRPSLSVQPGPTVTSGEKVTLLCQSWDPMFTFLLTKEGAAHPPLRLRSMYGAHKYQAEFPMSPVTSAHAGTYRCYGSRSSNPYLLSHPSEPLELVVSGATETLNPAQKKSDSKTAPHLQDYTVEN

B1: ME-Ⅰ anti-LILRB4 monoclonal antibody (mouse IgG1 / Cκ) (antibody, V domains shown)
VH: EVQLEQSGAEVVKPGASVKLSCKASGYTFISYWMHWVKQRPGQGLEWIGEINPTNGRTNYNEKFKSKATLTVDKSSGTAYMQLSSLTSEDSAVYYCARWGQLGLREGYYAVDYWGQGTSVTVSS
VL: DIVLTQSPSSLSASLGDRVTISCRASQDISNYLNWYQQNPNGTVKLLIYYTSRLHSGVPSRFSGSGSGTDYSLTISNLEQEDIATYFCQQGDTLPPTFGGGTKLEIKA
notes: also called 单克隆抗体ME-Ⅰ; ME-Ⅰ抗LILRB4单克隆抗体
Does B1 bind [1]?
Result: no binding (tested: 50μg/mL)

Does B1 bind [2]?
Result: no binding (tested: 50μg/mL)

Does B1 bind [3]?
Result: no binding (tested: 50μg/mL)

Does B1 bind [4]?
Result: no binding (tested: 50μg/mL)

Does B1 bind [5]?
Result: no binding (tested: 50μg/mL)

Does B1 bind [6]?
Result: no binding (tested: 50μg/mL)

Does B1 bind [7]?
Result: no binding (tested: 50μg/mL)

Does B1 bind [8]?
Result: no binding (tested: 50μg/mL)

Does B1 bind [9]?
Result: no binding (tested: 50μg/mL)

Does B1 bind [10]?
Result: no binding (tested: 50μg/mL)

What about the IC50 [11] of the same binder?
Its IC50 is 9.69 µg/mL.

And the EC50 [12]?
Its EC50 is 0.375 µg/mL.

And the “IC50 of inhibition of ARG1 secretion by THP-1 cells in the presence of ApoE (arginase activity kit)” value [13]?
The value was 330 µg/mL.

And the EC50 [14]?
Its EC50 is 5.48 µg/mL.
